Measurements published in patent publication US20250236663A1 (NEURACLE SCIENCE, published 2025).
Numbering of substitutions follows the chain as printed.

Assays:
FAM19A5-M5 [1] = target: T1, FAM19A5-M5; assay: ELISA on phage-displayed FAM19A5 mutants; y axis without label; no blank in the panel
T1 construct: also called FAM19A5 mutant M5
T1 FAM19A5 mutant: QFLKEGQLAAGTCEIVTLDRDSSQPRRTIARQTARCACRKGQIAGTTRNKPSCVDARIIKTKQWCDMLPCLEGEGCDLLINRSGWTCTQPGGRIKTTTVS

[2] = target: T2, FAM19A5 fragment 5 mutant peptide F5-1 (#1) (human); assay: ELISA on the coated F5 mutant peptide
T2 construct: The entry already carries the alanine substitution and Ser for Cys; also called mutant peptide #1
T2 peptide: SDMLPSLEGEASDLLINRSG
Experimental: (§1) Overlapping peptide fragments (F1-F6, see FIG. 9) of the human FAM19A5 protein were synthesized and conjugated to BSA. Binding of the different anti-FAM19A5 antibodies to the BSA-conjugated peptide fragments F1-F6 was determined by Western blot analysis or ELISA assay. For the Western blot analysis, BSA-conjugated FAM19A5 fragments F1-F6 were separated by SDS polyacrylamide gel electrophoresis and transferred to a nitrocellulose membrane by the standard procedure. The membrane was incubated with the anti-FAM19A5 antibody (e.g., 1-65, 2 μg/ml, 1-65-scFv-rabbit Fc-SSS), and the antigen-antibody complexes were detected with the appropriate secondary antibody conjugated with horse-radish peroxidase (anti-rabbit IgG (Fc specific)-HRP, 1:4000 dilution). For the ELISA assay, the following protocol was used. FAM19A5 fragment F1-F6 (diluted to 1 μg/mL in 50 mM carbonate buffer (Biosesang) or to 20 μg/mL for high concentration analysis) were used to coat the wells of 96-well immuno plates (Thermo Scientific) (100 μL/well) overnight at 4° C. and then subsequently washed twice in 1×PBS. The plates were then blocked with the blocking buffer (100 μL/well) for 1 hour at room temperature. During the 1-hour incubation, the relevant anti-FAM19A5 antibodies were diluted to 1 μg/mL (or 20 μg/mL for high concentration analysis) in the diluent buffer. Once the plates were washed (2× using 1×PBS), the diluted anti-FAM19A5 antibodies were added to the appropriate wells, and the plates were incubated at room temperature for 1 hour. The plates were subsequently washed for a total of five times using the washing buffer. Next, the ODP substrate (prepared by dissolving one ODP tablet (O-phenylenediamine Dihydrochloride, Thermo) into 9 mL of sterilized deionized water and 1 mL of 10× stable Peroxide Stable buffer (Theromo)) was added to each of the wells, and the color change reaction was allowed to occur for 10 minutes. This reaction was stopped by adding 100 μL of 2N H2SO4 (Daejung) to the wells. The absorption value of each of the wells was detected at 492 nm using a 96-well microplate reader (Molecular Device).
(§2) Next, to identify the specific amino acid residues within the epitope fragment F5 that the 1-65 and P2-C12 antibodies bind to, different amino acid residues of the F5 fragment were replaced with alanine as shown in Table 9 (below).

[3] = target: T3, FAM19A5 fragment 5 mutant peptide F5-2 (#2) (human); assay: ELISA on the coated F5 mutant peptide
T3 construct: The entry already carries the alanine substitution and Ser for Cys; also called mutant peptide #2
T3 sequence (peptide, as listed by the source mutant): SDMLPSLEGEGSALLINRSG
Experimental: as §1, §2

[4] = target: T4, FAM19A5 fragment 5 mutant peptide F5-3 (#3) (human); assay: ELISA on the coated F5 mutant peptide
T4 construct: The entry already carries the alanine substitution and Ser for Cys; also called mutant peptide #3
T4 sequence (peptide, as listed by the source mutant): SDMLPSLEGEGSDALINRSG
Experimental: as §1, §2

[5] = target: T5, FAM19A5 fragment 5 mutant peptide F5-4 (#4) (human); assay: ELISA on the coated F5 mutant peptide
T5 construct: The entry already carries the alanine substitution and Ser for Cys; also called mutant peptide #4
T5 sequence (peptide, as listed by the source mutant): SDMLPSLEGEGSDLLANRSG
Experimental: as §1, §2

[6] = target: T6, FAM19A5 fragment 5 mutant peptide F5-5 (#5) (human); assay: ELISA on the coated F5 mutant peptide
T6 construct: The entry already carries the alanine substitution and Ser for Cys; also called mutant peptide #5
T6 peptide: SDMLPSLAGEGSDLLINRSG
Experimental: as §1, §2

[7] = target: T7, FAM19A5 fragment 5 mutant peptide F5-6 (#6) (human); assay: ELISA on the coated F5 mutant peptide
T7 construct: The entry already carries the alanine substitution and Ser for Cys; also called mutant peptide #6
T7 sequence (peptide, as listed by the source mutant): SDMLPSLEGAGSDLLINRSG
Experimental: as §1, §2

[8] = target: T8, FAM19A5 fragment 5 mutant peptide F5-8 (#8) (human); assay: ELISA on the coated F5 mutant peptide
T8 construct: The entry already carries the alanine substitution and Ser for Cys; also called mutant peptide #8
T8 peptide: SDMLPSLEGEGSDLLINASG
Experimental: as §1, §2

FAM19A5 mutant M6 [9] = target: T9, FAM19A5 mutant M6 (human); assay: ELISA on phage-displayed FAM19A5 mutants; y axis without label
T9 construct: FAM19A5 with region 6 replaced by the consensus of FAM19A1-4; The entry already carries the changes
T9 chain: T1 FAM19A5 mutant with N49A, K50R, S52A, K60L, T61Q, K62R, Q63W, D66Q, L68E, P69L

FAM19A5-M5 [10] = target: T1, FAM19A5-M5; assay: ELISA on phage-displayed FAM19A5 mutants; y axis without label; no blank in the panel, lowest bars about 0.05
FAM19A5 mutant M6 [11] = target: T9, FAM19A5 mutant M6; assay: as above
FAM19A5 mutant M8 = target: T10, FAM19A5 mutant M8 (human); assay: ELISA on phage-displayed FAM19A5 mutants; y axis without label
T10 construct: FAM19A5 with region 8 replaced by the consensus of FAM19A1-4; The entry already carries the changes
T10 chain: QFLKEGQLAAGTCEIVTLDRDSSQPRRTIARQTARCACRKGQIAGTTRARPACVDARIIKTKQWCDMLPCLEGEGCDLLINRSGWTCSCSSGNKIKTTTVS

FAM19A5-M1 = target: T11, FAM19A5-M1; assay: ELISA on phage-displayed FAM19A5 mutants; y axis without label; no blank in the panel
T11 construct: also called FAM19A5 mutant M1
T11 FAM19A5 mutant: T1 FAM19A5 mutant with I15V, V16I, T17A, L18A, D19H, N49A, K50R, S52A

FAM19A5-M2 = target: T12, FAM19A5-M2; assay: as above
T12 construct: also called FAM19A5 mutant M2
T12 FAM19A5 mutant: T1 FAM19A5 mutant with D21C, S22C, S23N, Q24K, P25N, N49A, K50R, S52A

FAM19A5-M3 = target: T13, FAM19A5-M3; assay: as above
T13 construct: also called FAM19A5 mutant M3
T13 FAM19A5 mutant: T1 FAM19A5 mutant with R27I, T28E, I29E, A30R, R31S, N49A, K50R, S52A

FAM19A5-M4 = target: T14, FAM19A5-M4; assay: as above
T14 construct: also called FAM19A5 mutant M4
T14 FAM19A5 mutant: T1 FAM19A5 mutant with A34V, R35K, A37S, R39F, K40P, N49A, K50R, S52A

FAM19A5 mutant M6 [12] = target: T9, FAM19A5 mutant M6; assay: as above
FAM19A5 mutant M7 = target: T15, FAM19A5 mutant M7 (human); assay: as above
T15 construct: FAM19A5 with region 7 replaced by the consensus of FAM19A1-4; The entry already carries the changes
T15 chain: T1 FAM19A5 mutant with N49A, K50R, S52A, G75E, D77K, L78T, I80P, N81D, R82N

B1: Anti-FAM19A5 (15A9) (antibody, V domains shown)
VH: QVQLQESGPGLVKPSETLSLTCTVSGGSISSYYWSWIRQPPGKGLEWIGYIYPSGSTNYNPSLKSRVTISVDTSKNQFSLNLKSVTAVDTAVYYCARVNPFGYYYAMDVWGQGTTVTVSS
VL: DIQMTQSPSSLSASVGDRITISCRASQSISTSLNWYQQTPGKAPRLLIYGASTLQSGVPSRFSGGGSGTDFSLTITSLQPEDFATYYCQESASIPRTFGQGTKLDIK
notes: Only variable domains are tied to the name
B1: binds (FAM19A5-M5 [1]).

B2: Anti-FAM19A5 (P2-C12) (antibody, V domains shown)
VH: QSLEESGGRLVTPGTPLTLTCTVSGFSLSTYAVTWVRQAPGKGLEWIGYINWRGGTSYANWAKGRFTISKTSSTTVDLKMTSPTTEDTATYFCARDASSGAAFGSYGMDPWGPGTLVTVSS
VL: ELDMTQTPSSVSAAVGGTVTIKCQASQSISSYLSWYQQKPGQPPKLLIYEASKLASGVPSRFSGSGYGTEFTLTISDLECADAATYYCQQGYSSTNVWNAFGGGTNVEIK
notes: Only variable domains are tied to the name; also called anti-FAM19A5 antibody P2-C12
B2 was tested, and the “O.D (492nm)” value [2] was 0.056, the binding result [2] was “no binding” and the “O.D (492nm)” value [3] was 3.65. For the same binder, the “O.D (492nm)” value [4] was 3.84, the “O.D (492nm)” value [5] was 3.86 and the “O.D (492nm)” value [6] was 3.49. The “O.D (492nm)” value [7] was 0.095, the binding result [7] was “no binding” and the “O.D (492nm)” value [8] was 0.1. B2: no binding [8]; no binding (FAM19A5 mutant M6 [9]); binds (FAM19A5-M5 [10]).

B3: Anti-FAM19A5 (P2-F11) (antibody, V domains shown)
VH: QEQLVESGGRLVTPGTTLTLTCTVSGFSLSSYGVSWVRQAPGKGLEWIGYIANNYNPHYASWAKGRFTISKTSSTTVDLKMTSLTTEDTATYFCARDNYGMDPWGPGTLVTVSS
VL: ELDLTQTPSSVSAAVGGTVTINCQASQSVYNNKNLAWYQQKPGQPPKLLIYAASTLASGVSSRFKGSGSGTQFTLTISDVQCDDAATYYCQGEFSCSSADCNAFGGGTELEIL
notes: as for B1
B3: binds (FAM19A5-M5 [10]).

B4: Anti-FAM19A5 (P1-F02) (antibody, V domains shown)
VH: QSLEESGGRLVTPGTPLTLTCTASGFSLSNYYMGWVRQAPGEGLEWIGIIYASGSTYYASWAKGRFTISKTSTTVDLKMTSLTTEDTATYFCARIDIGVGDYGWAYDRLDLWGQGTLVTVSS
VL: ELDMTQTPPSLSASVGETVRIRCLASEDIYSGISWYQQKPGKPPTLLIYGASNLESGVPPRFSGSGSGTDYTLTIGGVQAEDAATYYCLGGYSYSSITFGAGTNVEIK
notes: as for B1
B4: binds (FAM19A5-M5 [10]); binds (FAM19A5 mutant M6 [11]).

B5: Anti-FAM19A5 (13F7) (antibody, V domains shown)
VH: QVQLQEWGAGLLKPSETLSLTCAINAESFNGYSWTWIRQTPGKGLEWIGEISHFGSANYNPSLKSRATISADKSKNQFSLKLTSVTAVDTAVYYCARALRGTYSRFYYGMDVWGQGTTVTVSS
VL: DIVMTQTPLSLPVAPGEPASISCRSSQSLLHSNGYNYLDWYVQKPGQPPQLLIYLGSNRASGVPDRFSGSGSGTDFTLKISRVEAEDVGVYYCMQARQTPLTFGGGTKVEIK
notes: as for B1
B5: no binding (FAM19A5 mutant M8); binds (FAM19A5-M1); binds (FAM19A5-M2). B5: binds (FAM19A5-M3); binds (FAM19A5-M4); binds (FAM19A5-M5 [1]). B5: binds (FAM19A5 mutant M6 [12]); binds (FAM19A5 mutant M7).

B6: Anti-FAM19A5 (P2-A01) (antibody, V domains shown)
VH: QEQLVESGGRLVTPGTPLTLSCTASGFFLSGYYMSWVRQAPGKGLEWIGIIYPSGSTDYASWAKGRFTISKTSTTVDLKITTPTTEDTATYFCARVAGYVGYGYETFFDIWGPGTLVTVSL
VL: ELVMTQTPPSLSASVGETVRIRCLASEDIYSGISWYQQKPGKPPTLLIYGASNLESGVPPRFSGSGSGSDYTLTIGGVQAEDAATYYCLGGVTYSSTGTHLTFGAGTNVEIK
notes: as for B1
B6: binds (FAM19A5-M5 [10]); binds (FAM19A5 mutant M6 [11]).

B7: Anti-FAM19A5 (P2-F07) (antibody, V domains shown)
VH: QSLEESGGRLVTPGTPLTLTCTASGFSLSSYYMNWVRQAPGKGLEWIGIIYPSGTTYYAGWAKGRFTISKTSTTVDLKITSPTSEDTATYFCARTVSGYFDIWGPGTLVTVSL
VL: ELDLTQTPPSLSASVGGTVTINCLASEDIYSALAWYQQKPGKPPTLLISGTSNLESGVPPRFSGSGSGTDYTLTIGGVQAEDAATYFCQGYSSYPLTFGAGTNVEIK
notes: as for B1
B7: binds (FAM19A5-M5 [10]); binds (FAM19A5 mutant M6 [11]).

B8: Anti-FAM19A5 (P1-A08) (antibody, V domains shown)
VH: QSLEESGGRLVTPGTPLTLTCTASGFSLSTYYMSWVRQAPGKGLEWIGIVYPSGTTYYANWAKGRFTISTASTTVDLMITSPTTEDTATYFCARGDSFGYGLWGPGTLVTVSS
VL: ELVLTQSPSVQVNLGQTVSLTCTADTLSRSYASWYQQKPGQAPVLLIYRDTSRPSGVPDRFSGSSSGNTATLTISGAQAGDEADYYCATSDGSGSNYQYVFGGGTQLTVT
notes: as for B1
B8: binds (FAM19A5-M5 [10]); binds (FAM19A5 mutant M6 [11]).
